Literature values in article PMC13200438 (Journal of Nanobiotechnology, 2026).

Conditions: oral semaglutide (Rybelsus)

Substance: semaglutide
- oral (absolute) bioavailability: < 2%
